The text below walks through data of PMC6393540, “A dual role in regulation and toxicity for the disordered N-terminus of the toxin GraT”.

In data set [1] the target is T1, GraA (antitoxin; His-GraA2) (Pseudomonas putida (PaW85?)) (UniProt Q88MI6).
T1 sequence: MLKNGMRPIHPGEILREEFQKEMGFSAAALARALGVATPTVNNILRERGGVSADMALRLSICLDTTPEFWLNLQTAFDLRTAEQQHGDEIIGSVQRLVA
Kind of data set: ITC. The settings on record: ITC: 50 mM Tris pH 8.0, 250 mM NaCl, 2 mM β-mercaptoethanol (TCEP in purification for ITC), 25 °C; EMSA: 5 µM DNA, 30 min at room temperature, 6% native PAGE …. Background: In EMSA bound probe runs differently from free probe, usually more slowly.

Data set [2] concerns the target untagged antitoxin GraA co-expressed with His-tagged GraT (Pseudomonas putida). Kind of data set: crystal structure; crystal of the co-expressed and co-purified hisGraT2A2 complex, 2.2 Å, data at 100 K.
Data set [3] deals with N-terminally His-tagged antitoxin GraA (Pseudomonas putida). Kind of data set: crystal structure; crystal of hisGraA2, 1.96 Å, data at 100 K.
Data set [4] shares this target. In words: crystal structure; crystal of hisGraA2 with the 33 bp graTA operator DNA, 3.8 Å, data at 100 K.
The target is the same in data set [5]. In words: native MS; GraA2 (20 μM dimer) mixed with operator DNA duplex at 1:1, 2:1 and 4:1, 40 mM ammonium acetate pH 7, nano-electrospray.
The target of data set [6] is T2, GraA (antitoxin; His-GraA2) (Pseudomonas putida, UniProt Q88MI6 1-99).
T2 sequence: T1 sequence
Kind of data set: ITC; N.D., binding too weak; ITC: 50 mM Tris pH 8.0, 250 mM NaCl, 2 mM β-mercaptoethanol (TCEP in purification for ITC), 25 °C; EMSA: 5 µM DNA, 30 min at room temperature, 6% native PAGE in TBE on ice. The settings on record: protein: recombinant; tags: N-terminal His6; chain copies: 4. Background: Isothermal titration calorimetry measures the heat released or taken up as one component is titrated into another.

Data set [7] addresses T3, GraT (toxin) in GraT2A2 complex;GraA (untagged) in GraT2A2 complex (Pseudomonas putida;Pseudomonas putida, UniProt Q88MI5;Q88MI6 1-92;1-99, |).
T3 sequence 1: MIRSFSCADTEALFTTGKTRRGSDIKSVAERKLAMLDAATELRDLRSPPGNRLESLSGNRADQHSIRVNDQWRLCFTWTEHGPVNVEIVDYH
T3 sequence 2: T1 sequence
Kind of data set: ITC; macroscopic; ITC: 50 mM Tris pH 8.0, 250 mM NaCl, 2 mM β-mercaptoethanol (TCEP in purification for ITC), 25 °C; EMSA: 5 µM DNA, 30 min at room temperature, 6% native PAGE in TBE on ice. The settings on record: protein: recombinant;recombinant; tags: N-terminal His6;none; chain copies: 2;2.

The target of data set [8] is T2, GraA (antitoxin; His-GraA2). In words: ITC; macroscopic, 2 dimers per DNA; text also gives 3.1e13; ITC: 50 mM Tris pH 8.0, 250 mM NaCl, 2 mM β-mercaptoethanol (TCEP in purification for ITC), 25 °C; EMSA: 5 µM DNA, 30 min at room temperature, 6% native PAGE in TBE on ice. The settings on record: protein: recombinant; tags: N-terminal His6; chain copies: 4.
Data set [9] shares this target. In words: ITC; macroscopic; ITC: 50 mM Tris pH 8.0, 250 mM NaCl, 2 mM β-mercaptoethanol (TCEP in purification for ITC), 25 °C; EMSA: 5 µM DNA, 30 min at room temperature, 6% native PAGE in TBE on ice. The following applies: protein: recombinant; tags: N-terminal His6; chain copies: 4.

Residue numbers refer to the chain shown, from its start.

As for “AGCTGAATGCTTAACGTTAAGCATTCAGCT (double strand) [Right side mirrored]”, in data set [1], the Ka amounted to 3.5e+12 M^-2.
As for “untagged antitoxin GraA co-expressed with His-tagged GraT (natural protein)”, in data set [2], the stoichiometry N (in general, a count of units in the complex or per binding partner) came to 2.
On to “AAATTAACGAATAACGTTATTCGTTAATTT (double strand) [Left side mirrored]”, for which the Ka in data set [1] stood at 5.2e+12 M^-2.
Take “N-terminally His-tagged antitoxin GraA (natural protein)”: the stoichiometry N in [3], in data set [4] and in data set [5] was 2 throughout.

B1: Downstream half (dsDNA)
DNA 1: AATAACGTTAAGCATTCAGCT
DNA 2: AGCTGAATGCTTAACGTTATT
As to B1, in [6], the binding result is given as “no binding”.

B2: graTA operator wild type 33 bp (dsDNA)
DNA 1: AAATTAACGAATAACGTTAAGCATTCAGCTCAT
DNA 2: ATGAGCTGAATGCTTAACGTTATTCGTTAATTT
B2: the Ka in data set [7] was less than 1e+07 M^-2; in data set [8], 3e+13 M^-2.

B3: Upstream half (dsDNA)
DNA 1: AAATTAACGAATAACGTTAAG
DNA 2: CTTAACGTTATTCGTTAATTT
Consider B3, for which, in data set [6], the binding result is “no binding”.

B4: Variant 1 (dsDNA)
DNA 1: AAATTAACGAATAACGGGCCGCATTCAGCT
DNA 2: AGCTGAATGCGGCCCGTTATTCGTTAATTT
As to B4, the Ka in data set [9] turned out to be 2.1e+09 M^-2.

B5: Variant 2 (dsDNA)
DNA 1: AAATTAACGAAGCCCGTTAAGCCGGCAGCT
DNA 2: AGCTGCCGGCTTAACGGGCTTCGTTAATTT
As to B5, in data set [9], the Ka came to 4.7e+11 M^-2.

B6: Variant 3 (dsDNA)
DNA 1: AAATTAACGAATAGTGTTAAGCATTCAGCT
DNA 2: AGCTGAATGCTTAACACTATTCGTTAATTT
As to B6, the Ka in [9] turned out to be 3.9e+11 M^-2.

B7: Variant 6 (dsDNA)
DNA 1: B5 DNA 1 with G12T, C13A, C14A
DNA 2: B5 DNA 2 with G17T, G18T, C19A
For B7, in data set [9], the Ka came to 1.5e+13 M^-2.

B8: Variant 4 (dsDNA)
DNA 1: AAAGGCACGAATAACGTTAAGCATTCAGCT
DNA 2: AGCTGAATGCTTAACGTTATTCGTGCCTTT
As for B8, in [9], the Ka was 4.3e+13 M^-2.

B9: Variant 5 (dsDNA)
DNA 1: AAATTAACGCCGAACGTTAAGCATTCAGC
DNA 2: GCTGAATGCTTAACGTTCGGCGTTAATTT
Regarding B9, the Ka in data set [9] was 7.1e+12 M^-2.

B10: Central palindrome (dsDNA)
DNA 1: GAATAACGTTAAG
DNA 2: CTTAACGTTATTC
For the molecule B10, the binding result in data set [6] is on record as “no binding”.
